Laboratory results taken from article doi:10.1101/2025.09.11.675605.

Tests used:
[1] = target: encapsulin (MSMEI_5672) from Mycobacterium smegmatis mc^2155 with C-terminal Strep-tag (Mycobacterium smegmatis mc^2155); assay: AF4-MALS
[2] = target: Human Epidermal Growth Factor Receptor 2 (human (endogenous in SKOV-3)) (UniProt P04626); assay: flow cytometry on cells

With “tandem cytosine deaminase with C-terminal encapsulin localization sequence (enzyme)” the stoichiometry N (tdCD molecules per nanocompartment) [1] was 18.7.

“^ZHEREnc{eGFP}: encapsulin nanocompartment with ZHER_(2:342) affibody-decorated shell, loaded with eGFP (complex)” showed a fold MFI elevation [2] of 62 fold.

In the case of “eGFP with C-terminal encapsulin localization sequence”, the stoichiometry N (eGFP molecules per nanocompartment) [1] is reported as 17.
